# Numbering of substitutions follows the chain as printed. Numbers in names are those of the source.
# B1: PaDa-I (AaeUPO variant) (Cyclocybe aegerita; F119A/F354L/I291V/L110F/V100A/V118I) (protein)
# chain: EPGLPPGPLENSSAKLVNDEAHPWKPLRPGDIRGPCPGLNTLASHGYLPRNGVATPAQIINAVQEGFNFDNQAAIAATYAAHLVDGNLITDLLSIGRKTRLTGPDPPPPASVGGLNEHGTFEGDASMTRGDAFFGNNHDFNETLFEQLVDYSNRFGGGKYNLTVAGELRFKRIQDSIATNPNFSFVDFRFFTAYGETTFPANLFVDGRRDDGQLDMDAARSFFQFSRMPDDFFRAPSPRSGTGVEVVVQAHPMQPGRNVGKINSYTVDPTSSDFSTPCLMYEKFVNITVKSLYPNPTVQLRKALNTNLDFLFQGVAAGCTQVFPYGRD
# notes: laboratory-evolved secreted variant; plasmid pJRoC30-PaDa-I in Saccharomyces cerevisiae BJ5465, purified; only F311L given; recalled mature changes V57A/L67F/V75I/I248V/F311L (plus signal peptide F12Y/A14V/R15G/A21D); heme-thiolate, N-glycosylated
# B2: PaDa-I (AaeUPO variant) (Cyclocybe aegerita; F234A/F354L/I291V/L110F/V100A/V118I) (protein)
# chain: B1 chain with A76F, F191A
# notes: as for B1
# B3: PaDa-I (AaeUPO variant) (Cyclocybe aegerita; F119L/F354L/I291V/L110F/V100A/V118I) (protein)
# chain: B1 chain with A76L
# notes: as for B1
# B4: PaDa-I (AaeUPO variant) (Cyclocybe aegerita; F119A/F234A/F354L/I291V/L110F/V100A/V118I) (protein)
# chain: B1 chain with F191A
# notes: as for B1
# B5: PaDa-I (AaeUPO variant) (Cyclocybe aegerita; F119L/F234A/F354L/I291V/L110F/V100A/V118I) (protein)
# chain: B1 chain with A76L, F191A
# notes: as for B1
# Substrate: O=[N+]([O-])c1ccc2c(c1)OCO2
# Experiment: purified protein
# Format: biochemical, Cyclocybe aegerita
# Details: H2O2 1 mM, potassium phosphate 50 mM pH 7.0, 20% v/v acetonitrile
Protein,Km [µM],kcat [s⁻¹],kcat/Km [M⁻¹ s⁻¹]
B1,1386 ± 176,356 ± 30,257000
B2,525 ± 73,279 ± 18,531000
B3,890 ± 81,454 ± 22,510000
B4,1389 ± 119,258 ± 15,186000
B5,1552 ± 155,332 ± 33,214000

# — article PMC7460833, “Exploring the Role of Phenylalanine Residues in Modulating the Flexibility and Topography of the Active Site in the Peroxygenase Variant PaDa-I” (International Journal of Molecular Sciences, 2020)
